Molecular target: Hapten-1-BSA, a general complete antigen of type I pyrethroid (bovine) (UniProt P02769)
Assay: indirect non-competitive ELISA, plate coated with Hapten-1-BSA at 2.0, 1.0, 0.5 and 0.25 µg/mL, antibody titrated

Chain of Hapten-1-BSA, a general complete antigen of type I pyrethroid (bovine) (P02769 25-607 limits assumed, form in doubt): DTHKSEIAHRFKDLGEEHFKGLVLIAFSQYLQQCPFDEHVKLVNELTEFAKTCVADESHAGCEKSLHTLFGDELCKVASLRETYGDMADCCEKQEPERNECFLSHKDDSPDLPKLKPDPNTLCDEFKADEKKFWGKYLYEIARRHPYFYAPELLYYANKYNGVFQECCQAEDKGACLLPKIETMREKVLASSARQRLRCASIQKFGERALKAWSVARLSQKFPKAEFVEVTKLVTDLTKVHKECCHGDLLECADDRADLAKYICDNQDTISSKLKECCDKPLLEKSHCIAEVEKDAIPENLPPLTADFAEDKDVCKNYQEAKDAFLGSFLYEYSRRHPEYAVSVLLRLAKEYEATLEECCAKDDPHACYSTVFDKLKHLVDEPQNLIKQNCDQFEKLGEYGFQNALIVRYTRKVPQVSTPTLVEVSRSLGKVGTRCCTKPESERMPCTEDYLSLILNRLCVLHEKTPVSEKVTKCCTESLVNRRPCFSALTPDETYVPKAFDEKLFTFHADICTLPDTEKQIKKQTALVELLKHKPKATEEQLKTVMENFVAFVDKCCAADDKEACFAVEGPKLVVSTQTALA

B1: universal monoclonal antibody against type I pyrethroid secreted by hybridoma cell line QW8# (antibody, IgG2a, V domains shown)
VH: QVTLKESGPGILQPSQTLSLTCSFSGFSLSTYGIGIGWIRQSSGRGLEWLAHIWWNDNRYYNIALKSRLTISKDASNNQFFLKLASVDTADIATYYCVRGYGRPFYAMDYWGQGTTVTVSS
VL: QAVVTQESALTTSPGETVTLTCRSSTGAVTTSNYVNWVQEKPDHLFTGLIGGTNNRGPGVPARFSGSLIGDKAALTITGTQTEDEAIYFCALWYSNHWVFGGGTKLTVL
  Ka: 2.16e+08 M⁻¹

From patent US20180246086A1
